In publication PMC10786891, “Massively parallel profiling of RNA-targeting CRISPR-Cas13d”:
Residue numbers refer to the chain shown, from its start. Names may count otherwise.

T1: EsCas13d, nuclease-dead (Eubacterium siraeum, UniProt B0MS50, R295A;H300A;R849A;H854A)
T1 sequence: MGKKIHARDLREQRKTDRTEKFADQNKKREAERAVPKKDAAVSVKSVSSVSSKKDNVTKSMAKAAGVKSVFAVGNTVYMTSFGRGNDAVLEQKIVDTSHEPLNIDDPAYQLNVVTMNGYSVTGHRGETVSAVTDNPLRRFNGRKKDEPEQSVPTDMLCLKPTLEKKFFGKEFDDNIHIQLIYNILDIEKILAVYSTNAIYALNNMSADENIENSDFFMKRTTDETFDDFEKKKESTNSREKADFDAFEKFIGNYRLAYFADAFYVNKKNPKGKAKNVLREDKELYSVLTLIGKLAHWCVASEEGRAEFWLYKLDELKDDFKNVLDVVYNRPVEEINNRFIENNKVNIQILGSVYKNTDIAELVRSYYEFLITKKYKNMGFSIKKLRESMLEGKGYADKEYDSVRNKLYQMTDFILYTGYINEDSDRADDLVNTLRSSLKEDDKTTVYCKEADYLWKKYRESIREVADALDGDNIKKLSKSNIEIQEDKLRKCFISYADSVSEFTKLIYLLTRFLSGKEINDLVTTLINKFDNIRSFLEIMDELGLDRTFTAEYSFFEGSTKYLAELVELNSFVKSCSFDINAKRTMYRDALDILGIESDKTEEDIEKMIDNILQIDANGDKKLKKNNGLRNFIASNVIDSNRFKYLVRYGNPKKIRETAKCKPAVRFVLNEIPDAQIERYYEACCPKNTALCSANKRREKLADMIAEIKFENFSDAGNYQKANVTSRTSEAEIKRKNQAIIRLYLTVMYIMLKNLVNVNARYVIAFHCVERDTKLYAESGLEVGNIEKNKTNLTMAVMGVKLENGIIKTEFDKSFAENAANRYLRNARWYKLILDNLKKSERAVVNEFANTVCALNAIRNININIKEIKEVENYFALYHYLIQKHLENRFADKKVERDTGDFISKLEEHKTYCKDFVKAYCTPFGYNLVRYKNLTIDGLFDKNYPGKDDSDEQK

B1: target 1 A1G,U11C (mixed)
RNA 1: CACCCGUGCAAAAAUGCAGGGGUCUAAAACUGAGCGGAUAACCUCUCUAUGG
RNA 2: GGGAAUGGAUCCACAUCUACGAAUUCGUACCAUAGAGAGGCUAUCCGCUCGCCGAGAUCGGAAGAGCACACGU
B2: target 1 insU 3' of 5,insU 3' of 1 (mixed)
RNA 1: B1 RNA 1
RNA 2: GGGAAUGGAUCCACAUCUACGAAUUCGUACCAUAGAGAGGUUAUCCGUCUCAUCCGAGAUCGGAAGAGCACACGU
B3: target 1 insU 3' of 21,insC 3' of 9 (mixed)
RNA 1: B1 RNA 1
RNA 2: GGGAAUGGAUCCACAUCUACGAAUUCGUACCUAUAGAGAGGUUACUCCGCUCACCGAGAUCGGAAGAGCACACGU
B4: target 1 U10C,U11A (mixed)
RNA 1: B1 RNA 1
RNA 2: B1 RNA 2 with C41A, U42C, G51A
B5: target 1 G5A,U10A (mixed)
RNA 1: B1 RNA 1
RNA 2: B1 RNA 2 with C41U, U42A, G47A, G51A
B6: target 1 insC 3' of 20,insU 3' of 18 (mixed)
RNA 1: B1 RNA 1
RNA 2: GGGAAUGGAUCCACAUCUACGAAUUCGUACCACUAUGAGAGGUUAUCCGCUCACCGAGAUCGGAAGAGCACACGU
B7: target 1 insU 3' of 15,insA 3' of 11 (mixed)
RNA 1: B1 RNA 1
RNA 2: B6 RNA 2 with C33U, U34A, A35G, U36A, A38U, G39A, A40G, G42U, U43A
B8: target 1 insG 3' of 18,insC 3' of 15 (mixed)
RNA 1: B1 RNA 1
RNA 2: B6 RNA 2 with C33U, U34A, A35G, U36G, G37A, A38G, G39C
B9: target 1 insG 3' of 11,insA 3' of 4 (mixed)
RNA 1: B1 RNA 1
RNA 2: GGGAAUGGAUCCACAUCUACGAAUUCGUACCAUAGAGAGGUGUAUCCGCAUCACCGAGAUCGGAAGAGCACACGU
B10: target 1 A9C,C22A (mixed)
RNA 1: B1 RNA 1
RNA 2: B1 RNA 2 with C30A, C41U, A43C, G51A
B11: target 1 insU 3' of 20,insC 3' of 1 (mixed)
RNA 1: B1 RNA 1
RNA 2: GGGAAUGGAUCCACAUCUACGAAUUCGUACCAUUAGAGAGGUUAUCCGCUCACCCGAGAUCGGAAGAGCACACGU
B12: target 1 C4G,A9C (mixed)
RNA 1: B1 RNA 1
RNA 2: B1 RNA 2 with C41U, A43C, C48G, G51A
B13: target 1 insU 3' of 22,insG 3' of 22 (mixed)
RNA 1: B1 RNA 1
RNA 2: B6 RNA 2 with C31U, A32G, U34A, A35U, U36A
B14: target 1 insC 3' of 22,insG 3' of 7 (mixed)
RNA 1: B1 RNA 1
RNA 2: B3 RNA 2 with U32C, C45U, U46C, C47G
B15: target 1 insU 3' of 20,insU 3' of 1 (mixed)
RNA 1: B1 RNA 1
RNA 2: B11 RNA 2 with C53U
B16: target 1 U8C,G17A (mixed)
RNA 1: B1 RNA 1
RNA 2: B1 RNA 2 with G35A, C41U, U44C, G51A
B17: target 1 U3A,U8C (mixed)
RNA 1: B1 RNA 1
RNA 2: B1 RNA 2 with C41U, U44C, U49A, G51A
B18: target 1 insC 3' of 18,insC 3' of 8 (mixed)
RNA 1: B1 RNA 1
RNA 2: B3 RNA 2 with U32A, A33U, U34A, A35C, C45U, U46C
B19: target 1 del7,del14 (mixed)
RNA 1: B1 RNA 1
RNA 2: GGGAAUGGAUCCACAUCUACGAAUUCGUACCAUAGAGGGUUAUCGCUCACCGAGAUCGGAAGAGCACACGU
B20: target 1 insU 3' of 18,insU 3' of 4 (mixed)
RNA 1: B1 RNA 1
RNA 2: B11 RNA 2 with U34A, A35U, C51U, A52C, C53A
B21: target 1 insU 3' of 6,insC 3' of 3 (mixed)
RNA 1: B1 RNA 1
RNA 2: B2 RNA 2 with G47U, U48G, A52C, U53A
B22: target 1 complement block 7-12 (mixed)
RNA 1: B1 RNA 1
RNA 2: B1 RNA 2 with G40C, C41A, U42A, A43U, U44A, C45G, G51A
B23: target 1 insU 3' of 20,insG 3' of 1 (mixed)
RNA 1: B1 RNA 1
RNA 2: B11 RNA 2 with C53G
B24: target 1 insU 3' of 12,insA 3' of 10 (mixed)
RNA 1: B1 RNA 1
RNA 2: B9 RNA 2 with G42U, U45A, C46U, G48C, C49G, A50C
B25: target 1 insG 3' of 8 (mixed)
RNA 1: B1 RNA 1
RNA 2: GGGAAUGGAUCCACAUCUACGAAUUCGUACCAUAGAGAGGUUAUGCCGCUCACCGAGAUCGGAAGAGCACACGU
B26: target 1 C6G,C22U (mixed)
RNA 1: B1 RNA 1
RNA 2: B1 RNA 2 with C30U, C41U, C46G, G51A
B27: target 1 insA 3' of 19,insU 3' of 9 (mixed)
RNA 1: B1 RNA 1
RNA 2: B3 RNA 2 with U32A, A33U, U34A, C45U
B28: target 1 insC 3' of 9,insG 3' of 3 (mixed)
RNA 1: B1 RNA 1
RNA 2: B9 RNA 2 with G42U, U43A, A44C, A50U, U51G
B29: target 1 insA 3' of 19,insA 3' of 15 (mixed)
RNA 1: B1 RNA 1
RNA 2: B6 RNA 2 with C33U, U34A, U36G, G37A, A38G, G39A

Molecular target: T1, EsCas13d, nuclease-dead
Assay: crRNA (strand 1, pre-loaded); Mg2+; 40 mM Tris-HCl pH 7.5, 150 mM NaCl, 6 mM MgCl2, 1 mM DTT, 0.1% Tween-20, 0.2 mg/ml BSA; 25 C; 10 min per concentration, then washed
Conditions: tags: His6-TwinStrep-SUMO cleaved; N-terminal SNAP kept (SNAP-Surface 488); label: 3' end held by stalled T7 RNA polymerase

**Q.** For B1, which Kd is on record?
**A.** 8.4 ± 0.5 nM

**Q.** Which Kd does the source give for B2 here?
**A.** 13.5 ± 0.6 nM

**Q.** For B3, which Kd is on record?
**A.** 40.1 ± 2.9 nM

**Q.** How did the Kd turn out when B4 was run?
**A.** 35.7 ± 2.9 nM

**Q.** Which Kd does the source give for B5 here?
**A.** 84 ± 16 nM

**Q.** B6 was tested. Which Kd did it give?
**A.** 6.12 ± 0.3 nM

**Q.** Which Kd does the source give for B7 here?
**A.** 27.8 ± 1.7 nM

**Q.** For B8, which Kd is on record?
**A.** 62 ± 11 nM

**Q.** How did the Kd turn out when B9 was run?
**A.** ~63 nM

**Q.** For B10, which Kd is on record?
**A.** 47 ± 9 nM

**Q.** With B11 as the binder, how does the Kd read?
**A.** 10.1 ± 1 nM

**Q.** With B12 as the binder, how does the Kd read?
**A.** 7.2 ± 0.7 nM

**Q.** Which Kd does the source give for B13 here?
**A.** 30.3 ± 2.5 nM

**Q.** For B14, which Kd is on record?
**A.** 16.2 ± 3 nM

**Q.** B15 was tested. Which Kd did it give?
**A.** 14.1 ± 1.4 nM

**Q.** Which Kd does the source give for B16 here?
**A.** 61 ± 10 nM

**Q.** How did the Kd turn out when B17 was run?
**A.** 7.6 ± 0.7 nM

**Q.** With B18 as the binder, how does the Kd read?
**A.** 44.9 ± 3 nM

**Q.** With B19 as the binder, how does the Kd read?
**A.** 18 ± 0.6 nM

**Q.** With B20 as the binder, how does the Kd read?
**A.** 20.2 ± 1.3 nM

**Q.** For B21, which Kd is on record?
**A.** 10.5 ± 0.7 nM

**Q.** With B22 as the binder, how does the Kd read?
**A.** 16.6 ± 0.7 nM

**Q.** Which Kd does the source give for B23 here?
**A.** 11.8 ± 1.2 nM

**Q.** Which Kd does the source give for B24 here?
**A.** 10.3 ± 0.4 nM

**Q.** Which Kd does the source give for B25 here?
**A.** 12.9 ± 0.5 nM

**Q.** Which Kd does the source give for B26 here?
**A.** 14 ± 1.1 nM

**Q.** How did the Kd turn out when B27 was run?
**A.** 32.5 ± 3.1 nM

**Q.** B28 was tested. Which Kd did it give?
**A.** 7.3 ± 0.5 nM

**Q.** With B29 as the binder, how does the Kd read?
**A.** 16.4 ± 1.8 nM
